Assay: soluble on expression in E. coli; label from the status in PepcDB or PDB records

Sequence	soluble on expression in E. coli
GPGSMRDHAPTSAASATALVNPSLPNSSVVDASLTGAQKKSGASSTRQRPPTPLPSTTPPRSEQHYRMTETEAWLSASFGNLATMGDSNGNSGGARRHGGPSPSAAFPLTFQEVPAAVVNHLLSRITLIQSEEQRHRDAVTVEGREVSGSPEMADGAPLPTRNECRAIGEFMLANDTLLGRRPREGIDASACAPSALRLVSMPLFGDHRLATYSPQGAAANRRRRRRSKNRRAAGGGGDDVGELPCLATGNAGLAEPQEARGNGAGATPSTTSHPYSPRTFFVATQSHDVRRRLAAVTPLLRLTTNPDALWIEQRGTAYHYGEEGAEARRPHIDMKGLGNCSSFSVAAAASSRGGRGSSEPGPPRSASFSHTPSFPHAATATTTVIAAAPQLSRADVAFMKHLGTAAEVPLPAKPSHHPHQQEQQQLQLRASPASDTGVSNRAPVDRKRRRQKGQNPLSMKKKQRREVFRAH	not soluble
MAVKISGVLKDGAGKPVVNCAIELRARRTSPTVVAHVVATCVTDNNGAYVIEAEPGYYEVALHCNGWQPTRVGDIDVAPTDAPGTLNAFLNAPKDGDLRPEVMKRFEEMVAQAQQSAGAAAGNAQQTAQDVAAAATARDDAQRFAEKARQDATVTAEDRKATAEDVTSTGANAAAAGQSAQDAAGYARAAEQAKNDIDAALTGTLKMANHLSEIAAAGEKAQQKSRDNLGLKSAATMEAQSDIYDRTKGRLAIPGAFGFGCAFLPEDVIRFDTKSDFLAWVRNALPGEYSVAGPYGIIIPDTRFEGVLSIRWTDARPETTEPRYRAKSLTFYGINGPIYHTRYRYWPISRLTG	not soluble
SAAVALRDSAQGTVTFEDVAVNFSQEEWSLLSEAQRCLYHDVMLENLTLISSLGCWYGAKDETPSKQTLSIQQESPLRTHWTGVCTKKVHLWGMCGPLLGDILHQGTQHNQKLNGFGAYEKKLDDDANHHQDQKQHIGEKSYRSNAKENE	soluble
MGREFLDLFEQWAESYDQSVEGYDEQYRDVFAGYDRILSTVADKAGQVVLEFGIGTGNLTKKLLERGKTVYGIEPSAPMRKKAAEKLGERAVIMDGDFLQFPLPPEPIDTIASTYAFHHLTDAEKDEAIAKYSQLLHSGGKIVFADTAFRDKEAFRQTVEAARARGFHDLADDLEREYYTTLDVLASLFANHGFSVSFAQQNAFVWVMEAVKQTTLEHHHHHH	soluble
MGSDKIHHHHHHMAVLVTRPDERGQQLVDMLAKAGVVAIHLPLFRIESGAELNELPNKFAKLKNGDYVFAVSKSAVDFAFKTLTATGFVWRHDLHYFTVGQGTAQYFTATTEMPVHYPTAQENSEGLLQLNAMQDLSDKTVLILRGNGGRELFAEQAQQRGANVEIVECYRREPIVYNNAEQTSICKRAGIQTIVVTSAEILTQLVDFVPQNEHNWLKSCQLITVSERIAHLAEALGWQNVVISPRADNQTLLQTLLQCR	not soluble
TGCSVTATRAEEWSDGFNVTYSVSGSSAWTVNLALNGSQTIQASWNANVTGSGSTRTVTPNGSGNTFGVTVMKNGSSTTPAATCAGS	soluble
MGSDKIHHHHHHMILNIDVNLAYSIEQPVDLILQIQAPSFADQHVVSETFDLGNPEHVGRIAGEAGMGDRVLLSTATDFRFSYTAQIDVNRPALALEQLKAVAPHLLPGDAVRYLMPSRYCQSDELQSFVAAEFGHLSGGARIVAMRDWINQRYQYVPGSSTAQTTAIDTFVQRQGVCRDFAHVLIALARASAIPARFVSVYAPHVTPQDFHAVAEVFLDGTWHLVDATGMADASDIARIGVGMDAAEVAFLSSFGPMTMDTQTVSVSIAGS	not soluble
MPNLSCGVDNCAYNQNDMCSLNSIKVNGSFANHSEATCCGSFVEKGGFTNAAVDMGPAEPATSVACEAEKCCYNKNCKCHAESIDISGDYAQHQDNTECSTFRQELEHHHHHH	soluble
MSLIGEILPLSHIVLDMEVGSKKRLFEEAGLLLERESSLSHADVFECLFAREKLGSTGLGQGVAIPHGRHAGVKQATGAFIRTREPVGFDAPDGKPVSLIFILLVPENATGEHLEVLSKLAGKFSQKSIRESLMTVSSAEEVRAILTEE	soluble
MGSDKIHHHHHHMKIGIITICKVNNYGAELQAFATQKKLEQMGHNAEIINYLYYKDWHFKDTPLSQPFVPLDMKGKLSYWIKYRLMSWVVNKVLPIFNGNMRRRLHNYQSFIDSERFSAQYKSMDELYKTYPKYDIYMVGSDQVWNPSASSSIEPYFLTFAPKNAPKVTYASSFGVASIAPNLSKRYAKLLNNLDTIAVREQSGVELVKQLTGREAKLVVDPTLLLSKADWEPYMKPLAKISTQYILIYQLFPSQTVIDVALKIGKEKNLPVYNICKRAYGMKKIVGINNILDAGPSEFLWLIANATCMVTNSFHGTAFSVNFATPFCCVLNRKRKNNGRMISFLDKVDMSNRILYEDSIAELNVMTACSEVTNNHLRLLVNNSIDYLKSIIENKEQKC	not soluble
GPGSMADSNPTKEGTSSAPLHPLKDKWFVFYIPASKGNEYEHETKELGYVSTIEEVYSTINTLPPITLLPNDDNLVFSRNKIEPQFESFPGGMRFSIFCKTKTQCREALTYVVAVVLGEAIGRDACKGECVCDIVRIGHKGSAMYKESVRIEVWAHQSPYNTAMEKYLVSTLSAIPGITVSARPFK	soluble
AHHHHHHGSGDNRKVRVVVGGVFDILHVGHVHFLKMAKELGDELIVIVAHDETVKRRKGRPPINPAEDRAELLKSIRYVDDVVIGEPGEISIDLIKRLKPDVIALGPDQDFSCEELKKRLRKEGINAEVIRLPYLYKSDRAKTSKIIQRIIETFCE	not soluble
QSSAQRHADLNTLIGHTEPVANIAQDLYSSLSLADTEASASFVRGTNDNYVEYIQKAALLVTQTDGDIANIATQLPVYTGLVETARANNRQGHPVGVAYMSEASTLMQESILPAASQLYLNAAEQVSTAQRNLARPQ	not soluble
DIVMTQTPKFLLVSAGDKVTITCKASQSVSNDLTWYQQKPGQSPKLLIYYASNRYTGVPDRFTGSGYGTDFTFTISTVQAEDLAVYFCQQDYGSPPTFGGGTKVEIKRTVAAPSVFIFPPSDEQLKSGTASVVCLLNNFYPREAKVQWKVDNALQSGNSQESVTEQDSKDSTYSLSSTLTLSKADYEKHKVYACEVTHQGLSSPVTKSFNRGEC	soluble
AIASVAFVPDWLRGKAEVNQETIQRLLEENDQLIRCIVEYQNKGRGNECVQYQHVLHRNLIYLATIADASPTSTSKAME	soluble
MGSDKIHHHHHHMSHNIKYRQLKAFRILAESGSFKHAADSLAVTQPSMSIMIRELESDLGVALIDRATRSAELTDAGRDFYQQIKGSLDQLEKAYSYANAAGKAEHGRVRIATLTSLAAEAVTTAIARMHAERPGIQIELMERTYFLALRRREVDLGVGILHEAHADLDFQYLFSDQLVVVTPKGHPLARQRQPLKHLGKYDVVVVSPGPSLEALQELDADCAPPVQVEQPSTAITMVRKGLGVTVTSSSATTGLDMRGLAAVPIPGTTRDVGVITLAQARLSPVASAFLRCLRHVHPAG	not soluble
MADANATICYLNGLSLHTINEVEKILLALPKKGDRCEVQVTKPLNGTIGRSTGDVIASKSMQIHDEPRPLSLSPPLQKSEKSSKSKKLSEYSCMSSTKEQMETVEIRNGSNASAAKKLQCKVLTDQVRVSPIVSCNGVILELDVEVTIPDREEKKKLKLEIECPDFVPARIKIGNKWKKIV	not soluble
MIKKITISDLIRMGDEKEREWFMFHAEVERIFNDTEIVGIKYQATITYVIGELDEDVLNTVFESNWNKTAEVLKKHEIEVEDIKIDKNEKKVEIKLKTSGIVYREGLFEFEDIKELLKDVLARKIEEAWISVLQEHGYILEHHHHHH	soluble
MTVNKITYQNLQEEVYKLTLESGLNVYLIPKPSFKETVGVLTANFGSLHTKYTRNGCVEHYPAGIAHFLEHKLFELDKGQDAATQFTKYGAESNAFTTFDKTSFYFSTISHITNCLDILLDFVLTTNFTEESITKEKDIIKQEIEMYQDDPEYRLYQGVLSNLYPNSPLAFDIAGDYQSISQITLTDLQENHKDFYQLSNMNLVLVGQFSPQEIITYLQKNSHFTSYSQNIDRDSISLEPVIKNNSCHMTVTKPKLAIGYRKSNHMIHGSYLKEKIGLQLFFAMLLGWTSTINQDWYESGQIDDSFDIEIEVHPDFECVIISLDTTEPIAFSTQLRLLLKNALQSSDLTESHLKNVKRELYGDFLRSLDSIENLAMQFVTYLYDGKTMYLDLPSIVEELDLEDVITIGKDFLDNADTSDFVIFPKSS	not soluble
AGADGTSEELADNFVFGFHATVEALQQGRGNKLFLQEDARGEKIEQLKQAAKEQAVPVKWVPKAKLDTMSDHGVHQGMVLAITA	not soluble
MSLKPIFGRGPSLQLRLFFAVMLSASLMLADSRLGAFSHVRFLLNSLVAPIQYAADLPRVLFDDFYDSISSHQQLRENNQLLKREVLTLKSNLLLLEQYKEENQRLRKLLGSSFLRDEKKVVTEVMAVDTSPYRHQVVIDKGRVDGVYEGQPIINEKGIVGQVTFVAAHNSRVLLLIDPNTAIPVQNIRNDIRVIASGNGQTDQIQLEHIPTSTDIEVGDMLVTSGLGGVYPEGYPVAIVSQVDKDTRREFASIKADPVVEFDRLRYLLLIWPNEDRLQKVMQADPQVLLEEEANAQEGHHHHHH	soluble
MGSDKIHHHHHHMPEEIVTRVITFFFPYDSKVEGKNDCVDTYKIHTFPEYENSDWYRGDPRDHSNGQPNGHEMWGHGQIGWWQKDENGWHWYWEDESNMPRPTQGLSEIMSTTTTTGSPLSIYSTTPSDAPETYSDTVLSVVLGF	not soluble
MGSDKIHHHHHHMLITNVRPWGGDNVDLEVHEGRIAAVHPAGTGDVSADAAGGTIDGRGRIAFPAFTDVHVHLDSTRIGLPFREHTASPGVWNMMCNDRENWRDTPIPYADVVAGTLERMIARGTTRVRSYAQIDVDCKLERFEAVLAAKERFAHAAEVEVMAFPQAGLLLEDGTVPLLEEALRAGATTIGGIDPCQLDRDPARHLDIVFELAEKYGVDVDIHLHEPGHLGVFSAELIFERTRALGMQGRVSLSHAYDLANVHPDVTARIVEQMAELDVAWATVAPASGGAQFDLARMTEAGIRVGLGEDGQRDYWSPYGNCDMLDRTWQLAFTHRLRKDRLIEHCAAIATVGGASIMDRTVPRLTSPDDRPGLTPGDRADVVLVDGETVTSTVMDRGTDRTVIHDGRLVADGLAVLPRAAG	not soluble
MDPSSKPLREIPGSYGIPFFQPIKDRLEYFYGTGGRDEYFRSRMQKYQSTVFRANMPPGPFVSSNPKVIVLLDAKSFPILFDVSKVEKKDLFTGTYMPSTKLTGGYRVLSYLDPSEPRHAQLKNLLFFMLKNSSNRVIPQFETTYTELFEGLEAELAKNGKAAFNDVGEQAAFRFLGRAYFNSNPEETKLGTSAPTLISSWVLFNLAPTLDLGLPWFLQEPLLHTFRLPAFLIKSTYNKLYDYFQSVATPVMEQAEKLGVPKDEAVHNILFAVCFNTFGGVKILFPNTLKWIGLAGENLHTQLAEEIRGAIKSYGDGNVTLEAIEQMPLTKSVVYESLRIEPPVPPQYGKAKSNFTIESHDATFEVKKGEMLFGYQPFATKDPKVFDRPEEYVPDRFVGDGEALLKYVWWSNGPETESPTVENKQCAGKDFVVLITRLFVIELFRRYDSFEIELGESPLGAAVTLTFLKRASI	soluble
MEKLRIKGMSYTMCSGKFSIDKEMAETQHGTTVVKVKYEGAGAPCKVPIEIRDVNKEKVVGRIISSTPLAENTNSVTNIELEPPFGDSYIVIGVGNSALTLHWFRKGSSIGK	soluble
MDASKSLPIRKHTTLLNRLPETRFATQLDKAKANWIVFAEYLSPRHFEDIDFFTGFYNPVLETWKVGQYEVALMAGELTSQHETILKSLNIDYASLNEVPDLSAPG	not soluble
